The supplement of paper PMC7125110
± gives the standard error. For part of these data: Variants at the floor of the assay were thinned out.

B1: glmS ribozyme (parent)
chain: AUAAAAGCGCCAGAACUACAGAAAUGUAGUUGACGAGGAGGAGGUUUAUCGAAUUUUCGGCGGAUGCCUCCAAA

Columns and labels:
Conditions in all cases: with glucosamine-6-phosphate
[1] = variants of: B1; assay: kcat; higher = faster cleavage; RNA array
Procedure, shortened: (§1)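 The measurements used barcoded ribozyme variants on sequenced MiSeq chips, transcribed in situ by E. coli RNA polymerase and tracked at 37 °C with a hybridised Cy3 probe. Glucosamine-6-phosphate, 40 μM to 10 mM in HEPES/KCl/Mg(OAc)2 buffer, was flowed in while tiles were imaged over ~14 h. Baseline-normalised signals, also normalised to non-cleaving reference variants, gave per-tile medians that were fit to one- or two-exponential decays for kobs. kcat and KM resulted from weighted Michaelis–Menten fits across concentrations.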

[2] = variants of: B1; assay: KM; higher = weaker cofactor use; RNA array
Procedure, shortened: as §1

[3] = variants of: B1; assay: self-cleavage kobs at 40 uM GlcN6P; higher = faster cleavage; RNA array
Procedure, shortened: as §1

[4] = variants of: B1; assay: self-cleavage kobs at 10000 uM GlcN6P; higher = faster cleavage; RNA array
Procedure, shortened: as §1

[5] = variants of: B1; assay: self-cleavage kobs at 160 uM GlcN6P; higher = faster cleavage; RNA array
Procedure, shortened: as §1

[6] = variants of: B1; assay: self-cleavage kobs at 2500 uM GlcN6P; higher = faster cleavage; RNA array
Procedure, shortened: as §1

[7] = variants of: B1; assay: self-cleavage kobs at 640 uM GlcN6P; higher = faster cleavage; RNA array
Procedure, shortened: as §1

Variant	kcat [1]	KM [2]	self-cleavage kobs at 40 uM GlcN6P [3]	self-cleavage kobs at 10000 uM GlcN6P [4]	self-cleavage kobs at 160 uM GlcN6P [5]	self-cleavage kobs at 2500 uM GlcN6P [6]	self-cleavage kobs at 640 uM GlcN6P [7]
C50U A53U	5.88e-05 ± 7.9e-06 s⁻¹	5390 ± 2000 µM	< 1e-05 s⁻¹	3.82e-05 ± 8.6e-06 s⁻¹			
G51U G60C	1.97e-05 ± 5.9e-06 s⁻¹						
G51A G62A	< 1e-05 s⁻¹		< 1e-05 s⁻¹				
G51U C67U	< 1e-05 s⁻¹			< 1e-05 s⁻¹			
G51A C68G	3.03e-05 ± 1.4e-05 s⁻¹						
U49G A64U	1.18e-05 ± 9.4e-07 s⁻¹		< 1e-05 s⁻¹		< 1e-05 s⁻¹		
C50A C67G	2.95e-05 ± 1.1e-05 s⁻¹		1.98e-05 ± 9e-06 s⁻¹			4.73e-05 ± 9.8e-06 s⁻¹	
A48U G66A	0.000466 ± 2.8e-05 s⁻¹	7160 ± 740 µM		0.00027 ± 4.1e-05 s⁻¹		0.000123 ± 2.3e-05 s⁻¹	
A52C C71U	1.4e-05 ± 5.1e-07 s⁻¹	1650 ± 280 µM	< 1e-05 s⁻¹				
C50G G60A	4.61e-05 ± 2.1e-05 s⁻¹				7.6e-05 ± 1.9e-05 s⁻¹	4.5e-05 ± 1.8e-05 s⁻¹	
A48U C71G	4.92e-05 ± 1e-05 s⁻¹			3.69e-05 ± 8e-06 s⁻¹		6.5e-05 ± 9.8e-06 s⁻¹	4.04e-05 ± 7.5e-06 s⁻¹
A48U C71A	0.000129 ± 1.2e-05 s⁻¹	1380 ± 540 µM		0.000111 ± 1.4e-05 s⁻¹		0.000102 ± 2.6e-05 s⁻¹	
U49G A53G A64G C67A	0.000753 ± 0.0002 s⁻¹	2220 ± 890 µM	3.28e-05 ± 1.1e-05 s⁻¹	0.000669 ± 0.00013 s⁻¹	5.27e-05 ± 1.4e-05 s⁻¹	0.000369 ± 7.9e-05 s⁻¹	0.00016 ± 2.3e-05 s⁻¹
C50G C58A G62C G63C C70A	0.000121 ± 3.1e-05 s⁻¹		4.49e-05 ± 1.7e-05 s⁻¹	9.95e-05 ± 1.6e-05 s⁻¹	0.000204 ± 4.8e-05 s⁻¹	0.000239 ± 5.5e-05 s⁻¹	0.000166 ± 4.1e-05 s⁻¹
C50G G60C U69A	8.12e-05 ± 2.6e-05 s⁻¹			4.94e-05 ± 1.4e-05 s⁻¹	0.00016 ± 4.5e-05 s⁻¹	0.000146 ± 3.1e-05 s⁻¹	0.00011 ± 2.1e-05 s⁻¹
U49G C68U	0.000145 ± 1.9e-05 s⁻¹	862 ± 360 µM		0.000144 ± 1.8e-05 s⁻¹	5.03e-05 ± 2.2e-05 s⁻¹	9.44e-05 ± 1.6e-05 s⁻¹	6.17e-05 ± 1.2e-05 s⁻¹
C50U A52G	1.11e-05 ± 2.8e-06 s⁻¹						
G51U U69G	4.26e-05 ± 1.5e-05 s⁻¹			1.72e-05 ± 8.1e-06 s⁻¹	5.17e-05 ± 1.2e-05 s⁻¹	7e-05 ± 1e-05 s⁻¹	5.57e-05 ± 1.3e-05 s⁻¹
G51U U69A	5.12e-05 ± 2.4e-05 s⁻¹						7.72e-05 ± 1.7e-05 s⁻¹
C50U C71U	5.37e-05 ± 8.4e-06 s⁻¹			4.57e-05 ± 1e-05 s⁻¹		4.54e-05 ± 9.2e-06 s⁻¹	
C50A C61G C68G	3.41e-05 ± 1.4e-05 s⁻¹			2.92e-05 ± 1.3e-05 s⁻¹			6.76e-05 ± 1.9e-05 s⁻¹

Variant	kcat [1]	KM [2]	self-cleavage kobs at 40 uM GlcN6P [3]	self-cleavage kobs at 10000 uM GlcN6P [4]	self-cleavage kobs at 160 uM GlcN6P [5]	self-cleavage kobs at 2500 uM GlcN6P [6]	self-cleavage kobs at 640 uM GlcN6P [7]
U49A A53G	2.25e-05 ± 2.1e-06 s⁻¹	3410 ± 1000 µM					
C50A G66C	1.65e-05 ± 3e-06 s⁻¹						
C50U C67U	2.42e-05 ± 5.8e-06 s⁻¹					3.69e-05 ± 1.4e-05 s⁻¹	
C50G U54C	5.48e-05 ± 1.1e-05 s⁻¹				5.92e-05 ± 2.5e-05 s⁻¹	5.87e-05 ± 1.8e-05 s⁻¹	
C50U U54G	2.58e-05 ± 7.2e-06 s⁻¹					4e-05 ± 1.6e-05 s⁻¹	
G51U G60C C70G	1.22e-05 ± 2.5e-06 s⁻¹		< 1e-05 s⁻¹				
C50G A53G	4.4e-05 ± 2.2e-05 s⁻¹					3.81e-05 ± 1.5e-05 s⁻¹	
U49G C70U	0.001 ± 4.7e-05 s⁻¹	1860 ± 160 µM	2.78e-05 ± 1.2e-05 s⁻¹	0.000837 ± 7.5e-05 s⁻¹	7.37e-05 ± 1.3e-05 s⁻¹	0.00059 ± 7.5e-05 s⁻¹	0.000263 ± 3e-05 s⁻¹
G51U U55G	< 1e-05 s⁻¹	76.4 ± 18 µM		< 1e-05 s⁻¹			
G51C U54C	< 1e-05 s⁻¹					< 1e-05 s⁻¹	< 1e-05 s⁻¹
G51U A52G	< 1e-05 s⁻¹		< 1e-05 s⁻¹			< 1e-05 s⁻¹	< 1e-05 s⁻¹
U49G C50G	< 1e-05 s⁻¹						< 1e-05 s⁻¹
U49G G66U	6.16e-05 ± 2.8e-07 s⁻¹	5640 ± 59 µM		3.94e-05 ± 1.3e-05 s⁻¹			
U49G G66A	0.000689 ± 0.00024 s⁻¹	6210 ± 3000 µM		0.000375 ± 9.3e-05 s⁻¹		0.00024 ± 3.6e-05 s⁻¹	5.55e-05 ± 1.3e-05 s⁻¹
A52C U69A	1.76e-05 ± 5.9e-06 s⁻¹						
U49C C70G	1.42e-05 ± 2.5e-06 s⁻¹			< 1e-05 s⁻¹			
G51U C68U	< 1e-05 s⁻¹						
C50G C67U	0.000113 ± 9.9e-06 s⁻¹		9.57e-05 ± 8e-06 s⁻¹	0.000101 ± 7.4e-06 s⁻¹	0.000129 ± 1.6e-05 s⁻¹	0.000126 ± 1.5e-05 s⁻¹	0.000141 ± 1.7e-05 s⁻¹
U49C C50U	< 1e-05 s⁻¹		< 1e-05 s⁻¹	< 1e-05 s⁻¹			
U49C C50G	< 1e-05 s⁻¹		< 1e-05 s⁻¹	< 1e-05 s⁻¹	< 1e-05 s⁻¹		
U49G C67U	0.000381 ± 5.6e-05 s⁻¹	2520 ± 770 µM		0.000292 ± 4.6e-05 s⁻¹		0.000257 ± 6.4e-05 s⁻¹	7.24e-05 ± 1.9e-05 s⁻¹
